Test results as given in patent US9181543 (OBODIES, dated 2015).

Assays:
[1] = molecular target: T1, BSA (Bos taurus, UniProt P02769); experiment: micropanning: monoclonal phage on BSA coated on a 96-well plate, bound phage eluted and counted
T1 construct: commercial protein; also called Bovine Serum Albumine

[2] = molecular target: T2, hen egg white lysozyme (Gallus gallus, UniProt P00698 19-147); experiment: phage ELISA, multivalent display, immobilised hen egg white lysozyme, anti-M13 antibody and HRP-conjugated secondary antibody, absorbance
T2 construct: mature; The residue numbers E35, D52, W63, D101 and N103 fit mature numbering; also called hen egg lysozyme; Gallus gallus egg white lysozyme
Description: (§1) Phage ELISA experiments were performed to analyse selected clones for binding to lysozyme. Ninety-six-well ELISA plates were coated with 5 ug/ml hen egg lysozyme, 5 ug/ml RNaseA or 1% BSA in PBS at 4° C. overnight. After two washes with TBS, plates were blocked with blocking buffer (5% skim milk in TBS) for one hour at RT before phage (10^9 cfu/well, derived from VCS-M13d3) were added in 2.5% skim milk-TBS-T. Plates were incubated for 2 hours at RT with agitation. After 10 washes with H_2O, mouse anti-M13 protein VIII diluted in blocking buffer was added and incubated for 1 h at RT. Plates were washed 4 times with H_2O and horseradish peroxidase (HRP)-coupled rabbit-anti-mouse immunoglobulins (Pierce) in blocking buffer were added to the wells and incubated for 1 h at RT. Wells were washed 4 times with H_2O and 50 ul substrate solution (1 mg/ml o-phenylene-diamine in PBS 0.030% H_2O_2) was added per well. The reaction was stopped after ~15 min by addition of 25 ul 2.5 M H_2SO_4 and the absorbance was recorded at 492 nm.
(§2) BSA (white), RNaseA (hatched) and hen egg white lysozyme (black) were immobilised and incubated with monoclonal phage samples. Bound particles were detected with a mouse anti-M13 primary antibody and an HRP-conjugated anti-mouse secondary antibody. […] Bound phage were eluted and counted by bacterial infection.

[3] = molecular target: T3, RNaseA (Bos taurus, UniProt P61823); experiment: phage ELISA, multivalent display, immobilised RNaseA, anti-M13 antibody and HRP-conjugated secondary antibody, absorbance
T3 construct: commercial protein
T3 sequence (single chain, looked up): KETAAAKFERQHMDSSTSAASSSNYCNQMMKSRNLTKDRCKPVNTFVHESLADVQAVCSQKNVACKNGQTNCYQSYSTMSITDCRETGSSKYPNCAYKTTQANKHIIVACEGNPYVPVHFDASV
Description: as §1, §2

[4] = molecular target: T2, hen egg white lysozyme; experiment: micropanning: monoclonal phage on lysozyme coated on a 96-well plate, bound phage eluted and counted by bacterial infection
Description: BSA (white), RNaseA (hatched) and hen egg white lysozyme (black) were immobilised and incubated with monoclonal phage samples. Bound particles were detected with a mouse anti-M13 primary antibody and an HRP-conjugated anti-mouse secondary antibody. […] A 96-well plate was coated with lysozyme (black bars) or BSA (white bars) and incubated with monoclonal phage samples from clones picked after 6 rounds of selection. Bound phage were eluted and counted by bacterial infection.
Hen egg white lysozyme is a small stable protein which is commercially available and has a number of medically important human homologues. After four rounds of panning on immobilised lysozyme, enrichment of bound phage was observed. A further two more rounds of panning were performed before clones were randomly picked and screened for binding to lysozyme. Monoclonal phage samples were then prepared and studies were undertaken to characterize binding in a 'micropanning' approach on lysozyme immobilised on a 96-well ELISA plate. Bound phage were eluted and counted. […] These clones were sequenced. Sequences for some of the clones were identical (L14 and L15; L4 and L18; L8 and L21) narrowing down the number of unique clones to six.

[5] = molecular target: T2, hen egg white lysozyme; experiment: SPR (Biacore), lysozyme amine-coupled to CM5 chip, L6 as analyte from 370 µM in 1:2 dilutions, steady-state response plot
Description: The ligand lysozyme was coupled to a CM5 Biacore sensor chip, at 30 µg/mL in sodium acetate buffer at pH 4.3 via the primary amine groups of the protein. The second of four flow cells available on the chip was activated with 35 µL, at 5 µL/min, of a 1:1 mixture of EDC:NHS (commercially available from Biacore). Lysozyme was coupled to the activated surface with successive injections of between 10-20 µL, until an adequate response was seen. Remaining uncoupled active groups on the chip were deactivated with an injection of ethanolamine-HCl. For analysis, OB3 13mRL L6 was organized in a 1:2 dilution series of six concentrations, beginning at 370 µM in running buffer, plus a buffer-only blank. Each of the seven samples were analyzed in duplicate for 1 min @ 25 µL/min, in random order, using the first flow cell as a reference. The response curves were visualized and processed using BIAevaluation (Biacore). Relative response at each concentration was averaged and plotted to determine Rmax and kD using Sigma Plot (Systat Software, Inc.).

[6] = molecular target: T2, hen egg white lysozyme; experiment: phage ELISA on immobilised lysozyme, multivalent display
[7] = molecular target: T1, BSA; experiment: phage ELISA, immobilised BSA, anti-M13 antibody and HRP-conjugated secondary antibody, absorbance
[8] = molecular target: T3, RNaseA; experiment: phage ELISA, immobilised RNaseA, anti-M13 antibody and HRP-conjugated secondary antibody, absorbance
[9] = molecular target: T2, hen egg white lysozyme; experiment: surface plasmon resonance; L8, from the crystal-structure interface table

T1 sequence (P02769 25-607 limits assumed): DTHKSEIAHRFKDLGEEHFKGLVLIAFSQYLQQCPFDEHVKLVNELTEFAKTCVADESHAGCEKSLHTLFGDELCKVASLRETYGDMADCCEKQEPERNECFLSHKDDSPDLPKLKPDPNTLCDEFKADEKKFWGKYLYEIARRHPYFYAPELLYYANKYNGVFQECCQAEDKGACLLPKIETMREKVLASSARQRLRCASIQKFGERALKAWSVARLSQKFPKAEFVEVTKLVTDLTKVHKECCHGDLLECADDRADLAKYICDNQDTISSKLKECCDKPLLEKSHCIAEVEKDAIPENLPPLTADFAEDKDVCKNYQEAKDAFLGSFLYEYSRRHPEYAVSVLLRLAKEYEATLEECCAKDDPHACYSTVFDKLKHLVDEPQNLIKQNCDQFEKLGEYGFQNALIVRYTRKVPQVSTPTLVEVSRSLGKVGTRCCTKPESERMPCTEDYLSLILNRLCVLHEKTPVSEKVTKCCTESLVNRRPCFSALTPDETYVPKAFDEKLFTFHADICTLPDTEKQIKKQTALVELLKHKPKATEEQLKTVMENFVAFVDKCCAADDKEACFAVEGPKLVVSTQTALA
T2 sequence (P00698 19-147): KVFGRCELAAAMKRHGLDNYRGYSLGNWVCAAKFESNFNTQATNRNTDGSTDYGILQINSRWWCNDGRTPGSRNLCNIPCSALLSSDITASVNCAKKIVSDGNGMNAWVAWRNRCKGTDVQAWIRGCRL

B1: L5 (aspRS-OB 13mRL mutant) displayed on phage as pIII fusion (designed binder)
chain: VYPKKTHWTAEITPNLHGTEVVVAGWVTDLVDAGTWKFVQVADREGGANVWVSLVAGKTPDHLFKVFAELSREDVVVIKGIVEASKLPSYGVEIFPSEIWILNKAKPLPID
notes: Monoclonal phage; Monovalent display in micropanning, multivalent display in ELISA; not shown: c-myc tag and pIII of phagemid pRPSP2 (display carriers at the C end)
[1]
  binding result: no binding
[2]
  binding result: binds

B2: L14 (aspRS-OB 13mRL mutant) displayed on phage as pIII fusion (designed binder)
chain: VYPKKTHWTAEITPNLHGTEVVVAGWVSDLLDAGRAKYVFVYDREGGAEVMVTLAAGKTPDHLFKVFAELSREDVVVIKGIVEASKGWRDGVEIFPSEIWILNKAKPLPID
notes: Monoclonal phage; also called L15; L32; not shown: c-myc tag and pIII of phagemid pRPSP2 (display carriers at the C end)
[1]
  binding result: no binding
[3]
  binding result: binds
[2]
  binding result: binds

B3: L16 (aspRS-OB 13mRL mutant) displayed on phage as pIII fusion (designed binder)
chain: VYPKKTHWTAEITPNLHGTEVVVAGWVASLVDGGPRKWVFVRDREGGAEVTVELTAGKTPDHLFKVFAELSREDVVVIKGIVEASKGLRWGVEIFPSEIWILNKAKPLPID
notes: Monoclonal phage, monovalent display, micropanning only; not shown: c-myc tag and pIII of phagemid pRPSP2 (display carriers at the C end)
[1]
  binding result: no binding
[4]
  binding result: binds

B4: L6 (aspRS-OB 13mRL mutant) displayed on phage as pIII fusion (designed binder)
chain: VYPKKTHWTAEITPNLHGTEVVVAGWVEDLVDAGKTKWVFVCDREGGAQVIVELVAGKTPDHLFKVFAELSREDVVVIKGIVEASKSRAVGVEIFPSEIWILNKAKPLPID
notes: as for B1
[1]
  binding result: no binding

B5: OB3 13mRL L6, expressed and purified (designed binder)
chain: VYPKKTHWTAEITPNLHGTEVVVAGWVEDLVDAGKTKWVFVCDREGGAQVIVELVAGKTPDHLFKVFAELSREDVVVIKGIVEASKSRAVGVEIFPSEIWILNKAKPLPID
notes: Analyte in the Biacore experiment; also called Clone L6; selected OB-fold domain L6
[5]
  Kd: 36 µM

B6: L34 (aspRS-OB 13mRL mutant) displayed on phage as pIII fusion (designed binder)
chain: VYPKKTHWTAEITPNLHGTEVVVAGWVVGLMDEGALKGVEVRDREGGAPVEVTLEAGKTPDHLFKVFAELSREDVVVIKGIVEASKGYGSGVEIFPSEIWILNKAKPLPID
notes: Monoclonal phage, multivalent display, ELISA; not shown: c-myc tag and pIII of phagemid pRPSP2 (display carriers at the C end)
[6]
  binding result: binds
[7]
  binding result: no binding (tested: 10^9 cfu/well)
[8]
  binding result: no binding (tested: 10^9 cfu/well)

B7: L8 (aspRS-OB 13mRL mutant) displayed on phage as pIII fusion (designed binder)
chain: VYPKKTHWTAEITPNLHGTEVVVAGWVASLGDYGRVKIVKVSDREGGAAVPVYLEAGKTPDHLFKVFAELSREDVVVIKGIVEASKGVGRGVEIFPSEIWILNKAKPLPID
notes: Monoclonal phage; also called L21; L33; not shown: c-myc tag and pIII of phagemid pRPSP2 (display carriers at the C end)
[1]
  binding result: no binding

B8: OBody L8, purified, GST tag removed (designed binder)
chain: VYPKKTHWTAEITPNLHGTEVVVAGWVASLGDYGRVKIVKVSDREGGAAVPVYLEAGKTPDHLFKVFAELSREDVVVIKGIVEASKGVGRGVEIFPSEIWILNKAKPLPID
notes: GST tag removed with rTEV protease; Used for co-crystallisation with lysozyme
[9]
  Kd: 36 µM
